Experimental data published in the domain aggregation screens of Martell et al. (2025).

Experiment: soluble fraction after stress (log2 fold change); higher = more stays soluble; pooled small domains, quantitative proteomics
Conditions: stress: 75 degC
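Further: 20 min heating vs room temperature control held 20 min.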

| Sequence | soluble fraction (log2) |
| --- | --- |
| HMRFNIGNVIEHYKLNTEDLAKVLFPTVKYPKQAFDRVLKGEANLDVIQLERLANHIGVLVTDLF | -1.18 |
| HMRFQGKISDWNDEKGYGFVEPNGGGTRAFVHIKSFTDLPRRPINGDIIIYETTTDEKNRVQANNISFTR | -0.194 |
| HMRFSYLNIETRKDISSLINKSEITHSSYNNNEYLYKIKSKKTDDFKDLISLIDEKDLISYSIDS | -1.14 |
| HMRFTVSDKMDMLLKSLSAGQSMPFKSLFASASTKSEVIVTFLALLELMKLNQFVVWQDQILGEIEIERR | -0.751 |
| HMRGDQLREHLLWTAKDVFLELGFERASMDAVAARAETSKRSLYAHFESKEKLFLAVIDLVRG | -3.54 |
| HMRGESFSTLVSILQEMSARKAAQVLNGLSEGLAVEVLRALPSDVAGDILGRMDAAKAAALMEQLST | -0.46 |
| HMRGGLATLTPRERQVLALMAEGRSNAGIAAELVVSGGAVEKHVASIFTKLGLPPDESDNRRVLAVLRHLG | -1.74 |
| HMRGHASVEIKRIVYKYKLTDQELAKITGMKASDFPIYHDHLQLILPKRYWARVLDALQNYEKEHES | -4.04 |
| HMRGINDLSLVDPQGRIRKDGEQYVVAFGRHKGKEISQIISQDPSYLNWLLSPKGIEDDATRELIRTQYS | -0.206 |
| HMRGPTIELLIQKSALYEELDDSENALKEILKAFDRDSLNSDVLNRLVNLLLNDKQIDRAENYNQLLIEK | -0.17 |
| HMRGPVRLDLPVSGLSRSSGPALAKILQAVPGVHKAHVNVRSGKATLEYDPARAKVTDFVEVIRSAGFGT | -0.272 |
| HMRGQGRILAMLKIQPEIATKDLAYLLGIRQQSLNELLKKLEKNSYVERRPSEKDRRVMVVHLTEKGKE | -0.782 |
| HMRGQLADLWLPREQARRAAEIVAARPVPLGSVKTWIARGKLAPRKTGTGPALYRVGALVSLLAKS | -2.14 |
| HMRGVNEISYTTLISEVSGGNVRDVVISGDEITGTFNDGSRFHSFSPDDPQFIERLNDQGVIINVKPL | 0.168 |
| HMRHDSEGYYRLIGVPPDADDAELKEAAKKRLMEAHPDHGGSEDEFVEVYRAYRTLTDPSARAEYDARP | 0.28 |
| HMRHEDLSPAQKAAALVVAVGSENAAQVLRHLSEEEVEILAGEVARLGEVDPDVVDSVMREVYEQMMGH | -0.642 |
| HMRHKSNRRLTAAHQIEQQIQKLLMENTMEAKELKESLNFAAKDIDTVLSWLVDKDKVRINAINQYYWT | -0.434 |
| HMRHRITEKDKQFRIGQQVWHSEYGKGMVLSVDGIGSSARLTVSFVSGKLAKIIGTFVSTEP | -3.47 |
| HMRIETLESLANRLAYKAYRTGRKVELEPMNPFERRVIHTALQNSKYATTESEGEDMNRHIVIVPKEGG | -0.152 |
| HMRILGIDPGSVVTGYGVIDKSGNYLRHVLHGEIKPHKGYLLSEVLMDIFSKLSAVIVETNPQSV | 0.271 |
| HMRINIVKSKNAEQLYIIHSYRINGKNTSKIYKKLGTMADLLPLHNHDRDQVLAWAKEQARLATEQYDQEN | -2.79 |
| HMRIQLNFSDQLLDDVMSEALKHIDRKSQEHHIEKQMDDEFMLVYIDARLIIQVIVNIINNAIKY | 0.168 |
| HMRITEGEIVEIQEGDNRALVGVGEKLEGIISLDEIRGADGKLLFNVGDKITVMVMGHYNERPK | 0.244 |
| HMRITRREQQVLHLLAMGMTTREIAGHINLTERTVRNRISNLRDKLGAQTASQLLAKAVAQGLIEP | -2.69 |
| HMRIVSGRESMLGRTVVVADWAGERGHVVVDGERWNAVASTPLAAGRRARIVGIDGLTLSVSPDDKP | 0.0293 |
| HMRKAERHLLIKQVIDEFTIRTQEELLAKLSDYGVNATQATISRDIRDLKIVKAPDENGISRFVFF | -1.73 |

| Sequence | soluble fraction (log2) |
| --- | --- |
| HMRKGDDRLRAQVDEYISKQGNNTFNYKQVAHAINATSPISQRAVALYLAELAFDGDLLETAPGRYKSPSR | -0.0636 |
| HMRKIKDVLRLKLHAGLSHERVAASLNISKGVVAKYTSLAAAAGLDWPTVERLSEAALERRLV | -0.181 |
| HMRKIKEVLRLKFETGFSHERIAAAVGVSKGAVTKYVQRAVAAGLGWPLAPERDDAALEALLFPH | 0.842 |
| HMRKLDQRLAGLLLGKGRLVKATHQQLADELGSVREMVSRLLKGFAEHDLVRMSREQIEIVDAAGLRKLAD | -2 |
| HMRKPDLTSVRTLIRSVSKLARHLKISPNGIYRWISVNRIPGAHVVKVANYYDVEIRDLVHLTGSD | -1.49 |
| HMRLADHVVEKLLALVQDRGLQPGQKLPAERQLAEELGVSRTSVREAIQKLTSQGVLSARRGDGTYLQS | 0.0739 |
| HMRLARPLTPTEERVLRLLASDMSNAKIGEVLGIRLPTVKSHVSHIMQKLGVTSRAKARTAAQQLGI | -1.21 |
| HMRLDPENFYIRAVTYYRNGDWQRALSQLDEAIKLGTAIEYPALQARIYLEQGMRDEFIAASEK | -1.86 |
| HMRLDVALRGVLLDGDPTQSRAFVLVSGTTSTYRLGETVQSAELVAINADTITLRTETGLHVIGFDGLI | -2.77 |
| HMRLEYLVDVEEISIKEYLMLLGLSRRLARKIKLYGKMYINHQEAFNYHLVKKGDLLTIEFDE | -2.85 |
| HMRLIDVFELSPKNRTVLQLYYYEGYSVTEISKILKISVNGVTSRLSRARSKLKLEMEAAENE | -0.577 |
| HMRLMLITPTEFDEAAEIADNLKDRRAVLMNVEKTDNETARRLIDFLSGVVYALGGKIMRISAQAYVLT | 0.00546 |
| HMRLPNGYGGVTKLSGRRRKPYMVRKTIGWHIDEKTDKKVQDYVVIGYAATKSEALQMLADYNNNPFDV | -2.93 |
| HMRLSVVDLQDSLRGLEYPAGKGDLINHAREHNASADVIAVLEQFSERTYRSAADVGEEFGRV | 0.152 |
| HMRLTIAQLSEKTGVPERTIRYYIDRGLVPSAHGERRGAWYDTVHLEPLLRIQQWREAGLSLEAIADLLR | -1.72 |
| HMRMLLEERLDEIVKIVNERGSISNQELVKMFGASESTIRRDITTLANDNRVIRVHGGAMSVVS | -0.333 |
| HMRMTLKNKVEDIVHILRKDKQTSLSAILGDNTDRIQTIVVFLAILELVKQHLIKTDQNANFGDINLFPED | -0.000181 |
| HMRNLFWTEAQNAQNELNAMRINALTQSIRRIEPNFRGIPSLRDPNRPIPNEEVRDYENYLNRILP | 0.0375 |
| HMRNMRKLWIARINAAARMNDISYSKLMHGLKLANVEINRKMLSEMAIDDPKSFTALVETAKKALNG | -1.49 |
| HMRNPLYAQVADYVMQQIAAGTYRPHQAIPTEWQLAKKLEVSQGTVRKGLDELVFKQILYRQQGVGTFVAD | -1.31 |
| HMRPAAELGLPHAPKHFIQYLTEDDRPQVLKDVDYEGGMGVSIGRLREDSIFDWKFVGLAHNTL | 0.0714 |
| HMRPADTAAMLKYLSSGAVKGIGGALAGRIIEAFGDESIKVIEEDPARLATVKGITLKKAKEISEEMQRVN | -0.0169 |
| HMRPEFVVALSGADLGKLHRLYELGEVLSREDDAEGVTHAVLRVPDKHEHAFHAEFPQARPM | 0.879 |
| HMRPIDEVFGFFSRPENLTVITPSNLHFNILTPRPLEMKQGAVIDYTIKIFKVPIHWRTLITTYDPPFKFV | 0.059 |
| HMRPILTLEEAKAKALAHAGLKADQVTFTEAKLDWDDGKQVYDIEFYTADFKEYDYEIDAKTGEVLEVDY | -0.466 |
| HMRPKAIFVDVDDTLVRSVGQTRIPMPAVIAHIRRLHDAGHQLYLWSSGGADYARASAEELGIGQYFQAFL | -0.268 |

| Sequence | soluble fraction (log2) |
| --- | --- |
| HMRPRWTEQEVERAKAIKMIYPNAYRLESSDVFVQVWSKEEILLAHVEVDMFPSLRPGQPVELDEIIG | -1.19 |
| HMRPTAWDQISDWLDRHGSIANADVVRIAGLDTLKASKLLTTWREQGLLEPLPGRGKRNMAYVRAI | -0.887 |
| HMRPTVNETQIREVFRSILGREVDPEGLRHYLGQAAKGWSIDQIRADVNNSQEAHQRRAELARQAEELK | -0.0425 |
| HMRQDEKTLLYWIAGHLKREGRQITERSARHLVEQVGTDMENLSREMEKLIAYTMGRTEITGQDIDDI | -1.77 |
| HMRQEIIEDSRKLLEESLKRYDLTYQEFIDTLKSKNMNVESTLINIIKNQSSLDLVLRNLGLIAP | -0.0293 |
| HMRQISDPTALASMVDKVIEDNPSAVADYRRGESKALGFLIGRVMQSSGGKANPKMIRGLLVKNLES | -0.284 |
| HMRQMIIIMQKQAAASSVAAVVEFIRSKGLREHISPGAERTIIGAVGDERVFLPQELESLPQVERAIRVL | -3.67 |
| HMRQPAAVEYSTFLDWVHASQVERVVFEGDTIRGVRVTGEGFVTYSPETDNTALIGELKKSRVQISATAP | -0.508 |
| HMRQQAFWALVPEERDVLDETGAPLFRIGPTAWALVIEDRGEVFVVRDEDGRVGYLHEVDGVTR | -1.57 |
| HMRQQLAEILQKAVDNLPEAQRLVWLLRDKSDMTFKEIAEDLQLTEANVRVLLHRARLKLLAVINQYEE | -1.66 |
| HMRQYKEMPYRLFLIHLGKGLVDEVELSDKAKLTGKLKNGKIFITDNPRTENFKEQLLLHDVKVKEG | -0.329 |
| HMRQYTPEQLETAVLVLEEVRQGRRLDRALRSHPMPDGRLIAKHVLVAAYRKLVAEGTWKEDPEFLSRIRM | -2 |
| HMRRADRLLQLIQILRRHRRPVTGDVMARELEVSLRTVYRDIATLTIEGVPIRGEAGVGYVLGEGY | -2.41 |
| HMRRDEDLAHGRELLEKELRKQGLEVSENLKQDKLLEGAKRLGFLEAEDLVVAVGSGKVSAGMAVGRIIG | -0.114 |
| HMRREKVLIKLAENLASKVLRTKKSIELEPMTPYERKVIHTTIENISGVKSWSEGENLQRHLIVALDE | -1.5 |
| HMRRGPLTPDDFVLDMRVVHPRYGVGRIVALSGSGESRKATVDFGGSIGRMKFVLSQSPLKP | -1.34 |
| HMRRHLLEMNDAIGRLGRLISEDPADRDVAEVIWAALRGMVMGQMIMNEPIDWQRERRTLVEMAIGR | 0.0485 |
| HMRRIADVVPEQLTREEAEELLETLAEQGEIHEEQALLARYILEQSLQGVAPEVEPLIRAKLLAGILMVY | -2.18 |
| HMRRKDIEFTNTMLEELYRHNSKWYDAVVRAYALEIPQKQIAEEMGIRLEAFQSMLFRAKKWIKTKYEADY | -2.83 |
| HMRRNLSGEDTIVNRMAQWQYTQEQKNELHKMMDAGMPQEDILSVFYPEIKAEEMHRFLLAFQTAHNSG | -0.344 |
| HMRRPRGVFNLVPRGFKRFGFITPDGGGEDMFAHLENVRAGHVVEDRNAVEYGIGRGPDGRDQAVDIVPVP | -0.0889 |
| HMRRPTYPTVTTEAGMVVEDRSSGFVGDIVRWSFEGVTLRDRQQQLRHFTWKPGGFLINGTPVTLKRPE | -0.733 |
| HMRRRVIGTLVMGDMSTDFKVLADGHTHRVLAAAISFHKAKPGDEVVILVPKSAPSKWAAVEHVMK | 0.033 |
| HMRSAKLPYSEFLKLVDTDKVNDVSIVGRTISGHLDDGSKFSTYTPPNDPNIIEKLSSHNVIINSAPE | 0.0959 |
